{
  "source": "paper PMC4666417",
  "about": "“Specific Interaction between eEF1A and HIV RT Is Critical for HIV-1 Reverse Transcription and a Potential Anti-HIV Target” (PLoS Pathogens, 2015)",
  "key": {"[1]": {"molecular_target": "HIV-1 Gag, 6xHis-tagged, purified (HIV-1)", "assay": "BLI; biotinylated eEF1 subunit (eEF1A1, eEF1B, eEF1D or eEF1G) immobilised on streptavidin biosensor; RT subunits, RT heterodimer, Gag or RTp66 mutants as analytes at 90, 30 and 10 nM (mutants at 90 nM); kinetic buffer 1 mM phosphate, 15 mM NaCl, 0.002% Tween-20, 0.1 mg/ml gelatine, 1000 rpm, OctetRed", "settings": "both partners purified"}, "[2]": {"molecular_target": "T1, HIV-1 RT p66, 6xHis-tagged, purified (gift) (HIV-1, UniProt P04585 588-1147)", "T1 construct": "source: E. coli, purified; gift", "assay": "BLI; biotinylated eEF1 subunit (eEF1A1, eEF1B, eEF1D or eEF1G) immobilised on streptavidin biosensor; RT subunits, RT heterodimer, Gag or RTp66 mutants as analytes at 90, 30 and 10 nM (mutants at 90 nM); kinetic buffer 1 mM phosphate, 15 mM NaCl, 0.002% Tween-20, 0.1 mg/ml gelatine, 1000 rpm, OctetRed", "settings": "both partners purified"}},
  "data": [
    {"binder": "eEF1A1 (eukaryotic elongation factor 1 subunit A1), MYC/DDK-tagged (natural protein, human, UniProt P68104 1-462, looked up, biotinylated with EZ-Link Sulfo-NHS-Biotin where immobilised on the biosensor, human eEF1A1, full-length; Used as analyte (a1, a2, a5) and, biotinylated, as immobilised ligand (a3); also called MYC/DDK-eEF1A1; purified eEF1A; source: HEK293 cells, bought: OriGene; not shown: MYC, C-terminal, kept; DDK, C-terminal, kept) MGKEKTHINIVVIGHVDSGKSTTTGHLIYKCGGIDKRTIEKFEKEAAEMGKGSFKYAWVLDKLKAERERGITIDISLWKFETSKYYVTIIDAPGHRDFIKNMITGTSQADCAVLIVAAGVGEFEAGISKNGQTREHALLAYTLGVKQLIVGVNKMDSTEPPYSQKRYEEIVKEVSTYIKKIGYNPDTVAFVPISGWNGDNMLEPSANMPWFKGWKVTRKDGNASGTTLLEALDCILPPTRPTDKPLRLPLQDVYKIGGIGTVPVGRVETGVLKPGMVVTFAPVNVTTEVKSVEMHHEALSEALPGDNVGFNVKNVSVKDVRRGNVAGDSKNDPPMEAAGFTAQVIILNHPGQISAGYAPVLDCHTAHIACKFAELKEKIDRRSGKKLEDGPKFLKSGDAAIVDMVPGKPMCVESFSDYPPLGRFAVRDMRQTVAVGVIKAVDKKAAGAGKVTKSAQKAQKAK", "values": [
      {"measurement": "Kd", "setting": "[1]", "value": "21.5 ± 11.1", "unit": "nM"},
      {"measurement": "koff", "setting": "[1]", "value": 0.00188, "unit": "s⁻¹"},
      {"measurement": "kon", "setting": "[1]", "value": 87500, "unit": "M⁻¹ s⁻¹"},
      {"measurement": "Kd", "setting": "[2]", "value": "3.19 ± 1.08", "unit": "nM"},
      {"measurement": "koff", "setting": "[2]", "value": 0.000222, "unit": "s⁻¹"},
      {"measurement": "kon", "setting": "[2]", "value": 69500, "unit": "M⁻¹ s⁻¹"}
    ]}
  ]
}
